Consider 94 variants from the supplement of paper PMC10567573.

The chains are these.
B1: ATE1 (parent)
chain: YGSFHQQYWLDGKIIAVGVIDILP
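Note: lentivirally expressed fusions sorted by FACS into six bins by GFP to DsRed ratio, PSI derived from sequencing read proportions per bin multiplied by bin number.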

The data set covers variants of B1. Put plainly: protein stability index of a GFP-peptide fusion (GPS, HEK-293T) (PSI 1-6); higher = more stable. As to conditions: c terminus: a fixed tail appended.
For YGSFHWQYWLDGKIIAVGVIDILP [Q6W], the protein stability index amounted to 1.19.

On to YGSFHYQYWLDGKIIAVGVIDILP [Q6Y], for which the protein stability index turned out to be 2.43.

With YGSFHTQYWLDGKIIAVGVIDILP [Q6T], the protein stability index is 3.63.

As to YGSFHQQYWCDGKIIAVGVIDILP [L10C], the protein stability index was 2.9.

In the case of YGSFHQQYWWDGKIIAVGVIDILP [L10W], the protein stability index worked out at 2.66.

YGSFHQQYWHDGKIIAVGVIDILP [L10H]: the protein stability index worked out at 2.42.

In the case of YGSFHQQYWTDGKIIAVGVIDILP [L10T], the protein stability index is 1.74.

In the case of YGSFHQQYWDDGKIIAVGVIDILP [L10D], the protein stability index turned out to be 2.64.

On to YGSFHQQYWPDGKIIAVGVIDILP [L10P], for which the protein stability index was found to be 3.12.

As for YGSFHQQYWMDGKIIAVGVIDILP [L10M], the protein stability index was determined as 2.16.

Consider YGSFHQQYWVDGKIIAVGVIDILP [L10V], for which the protein stability index worked out at 3.17.

Consider YGSFHQQYWYDGKIIAVGVIDILP [L10Y], for which the protein stability index is 1.97.

For the variant YGSFHQQYWQDGKIIAVGVIDILP [L10Q], the protein stability index was 3.96.

Turning to YGSFHQQYWSDGKIIAVGVIDILP [L10S], the protein stability index worked out at 3.74.

As for YGSFHQQYWIDGKIIAVGVIDILP [L10I], the protein stability index was 3.3.

In the case of YGSFHQQYWRDGKIIAVGVIDILP [L10R], the protein stability index stood at 2.32.

Regarding YGSFHQQYWNDGKIIAVGVIDILP [L10N], the protein stability index came out at 3.14.

YGSFHQQYWEDGKIIAVGVIDILP [L10E]: the protein stability index turned out to be 2.75.

Take YGSFHQQYWKDGKIIAVGVIDILP [L10K]: the protein stability index was found to be 3.17.

YGSFHQQYWLDGAIIAVGVIDILP [K13A]: the protein stability index is 2.3.

With YGSFHQQYWLDGVIIAVGVIDILP [K13V], the protein stability index was found to be 2.63.

With YGSFHQQYWLDGEIIAVGVIDILP [K13E], the protein stability index amounted to 2.45.

For the variant YGSFHQQYWLDGFIIAVGVIDILP [K13F], the protein stability index stood at 2.76.

In the case of YGSFHQQYWLDGIIIAVGVIDILP [K13I], the protein stability index came to 1.1.

For the variant YGSFHQQYWLDGLIIAVGVIDILP [K13L], the protein stability index came out at 3.1.

Take YGSFHQQYWLDGTIIAVGVIDILP [K13T]: the protein stability index was 2.54.

For YGSFHQQYWLDGDIIAVGVIDILP [K13D], the protein stability index came out at 2.19.

On to YGSFHQQYWLDGMIIAVGVIDILP [K13M], for which the protein stability index was 3.74.

Take YGSFHQQYWLDGRIIAVGVIDILP [K13R]: the protein stability index came to 2.

As for YGSFHQQYWLDGCIIAVGVIDILP [K13C], the protein stability index worked out at 2.44.

Take YGSFHQQYWLDGNIIAVGVIDILP [K13N]: the protein stability index came out at 2.78.

For YGSFHQQYWLDGPIIAVGVIDILP [K13P], the protein stability index is 2.99.

Turning to YGSFHQQIWLDGKIIAVGVIDILP [Y8I], the protein stability index was 3.92.

Take YGSFHQQNWLDGKIIAVGVIDILP [Y8N]: the protein stability index came to 3.57.

Take YGSFHQQQWLDGKIIAVGVIDILP [Y8Q]: the protein stability index came out at 3.04.

As for YGSFHQQKWLDGKIIAVGVIDILP [Y8K], the protein stability index worked out at 2.35.

For the variant YGSFHQQPWLDGKIIAVGVIDILP [Y8P], the protein stability index worked out at 2.93.

Take YGSFHQQWWLDGKIIAVGVIDILP [Y8W]: the protein stability index was found to be 2.58.

With YGSFHQQFWLDGKIIAVGVIDILP [Y8F], the protein stability index turned out to be 3.62.

For YGSFHQQDWLDGKIIAVGVIDILP [Y8D], the protein stability index worked out at 2.78.

As for YGSFHQQHWLDGKIIAVGVIDILP [Y8H], the protein stability index was 2.57.

In the case of YGSFHQQYWLDQKIIAVGVIDILP [G12Q], the protein stability index came out at 2.45.

For YGSFHQQYWLDRKIIAVGVIDILP [G12R], the protein stability index came to 3.98.

Turning to YGSFHQQYWLDAKIIAVGVIDILP [G12A], the protein stability index was 2.54.

As to YGSFHQQYWLDIKIIAVGVIDILP [G12I], the protein stability index turned out to be 3.89.

For the variant YGSFHQQYWLDNKIIAVGVIDILP [G12N], the protein stability index was determined as 2.45.

YGSFHQQYWLDCKIIAVGVIDILP [G12C]: the protein stability index stood at 2.02.

Take YGSFHQQYWLDVKIIAVGVIDILP [G12V]: the protein stability index was 2.04.

Consider YGSFHQQYWLDKKIIAVGVIDILP [G12K], for which the protein stability index is 2.14.

As for YGSFHQQYWLDTKIIAVGVIDILP [G12T], the protein stability index worked out at 3.42.

Take YGSFHQQYWLDDKIIAVGVIDILP [G12D]: the protein stability index turned out to be 2.68.

Consider YGSFHQQYWLDSKIIAVGVIDILP [G12S], for which the protein stability index is 1.91.

With YGSFHQHYWLDGKIIAVGVIDILP [Q7H], the protein stability index was determined as 2.4.

With YGSFHQWYWLDGKIIAVGVIDILP [Q7W], the protein stability index turned out to be 4.02.

As for YGSFHQLYWLDGKIIAVGVIDILP [Q7L], the protein stability index is 2.01.

In the case of YGSFHQRYWLDGKIIAVGVIDILP [Q7R], the protein stability index amounted to 2.99.

With YGSFHQIYWLDGKIIAVGVIDILP [Q7I], the protein stability index turned out to be 2.67.

For the variant YGSFHQAYWLDGKIIAVGVIDILP [Q7A], the protein stability index turned out to be 4.84.

As for YGSFHQMYWLDGKIIAVGVIDILP [Q7M], the protein stability index worked out at 1.76.

As to YGSFHQPYWLDGKIIAVGVIDILP [Q7P], the protein stability index is 2.94.

Take YGSFHQCYWLDGKIIAVGVIDILP [Q7C]: the protein stability index was 3.33.

YGSFHQSYWLDGKIIAVGVIDILP [Q7S]: the protein stability index is 4.74.

Take YGSFHQGYWLDGKIIAVGVIDILP [Q7G]: the protein stability index was determined as 3.84.

YGSFHQTYWLDGKIIAVGVIDILP [Q7T]: the protein stability index was 3.51.

Turning to YGSFHQFYWLDGKIIAVGVIDILP [Q7F], the protein stability index worked out at 2.02.

With YGSFHQDYWLDGKIIAVGVIDILP [Q7D], the protein stability index stood at 2.72.

Consider YGSFHQQYDLDGKIIAVGVIDILP [W9D], for which the protein stability index came out at 2.53.

For the variant YGSFHQQYALDGKIIAVGVIDILP [W9A], the protein stability index was determined as 2.18.

For the variant YGSFHQQYPLDGKIIAVGVIDILP [W9P], the protein stability index came to 3.09.

With YGSFHQQYYLDGKIIAVGVIDILP [W9Y], the protein stability index was determined as 2.97.

In the case of YGSFHQQYILDGKIIAVGVIDILP [W9I], the protein stability index amounted to 3.29.

On to YGSFHQQYLLDGKIIAVGVIDILP [W9L], for which the protein stability index stood at 3.27.

Consider YGSFHQQYKLDGKIIAVGVIDILP [W9K], for which the protein stability index came out at 3.09.

With YGSFHQQYNLDGKIIAVGVIDILP [W9N], the protein stability index stood at 1.9.

For the variant YGSFHQQYHLDGKIIAVGVIDILP [W9H], the protein stability index came out at 3.06.

For the variant YGSFHQQYELDGKIIAVGVIDILP [W9E], the protein stability index stood at 2.26.

Regarding YGSFHQQYMLDGKIIAVGVIDILP [W9M], the protein stability index worked out at 1.98.

As to YGSFHQQYVLDGKIIAVGVIDILP [W9V], the protein stability index came out at 3.47.

On to YGSFHQQYQLDGKIIAVGVIDILP [W9Q], for which the protein stability index stood at 1.69.

Regarding YGSFHQQYSLDGKIIAVGVIDILP [W9S], the protein stability index came out at 2.48.

Turning to YGSFHQQYCLDGKIIAVGVIDILP [W9C], the protein stability index worked out at 2.17.

With YGSFHQQYRLDGKIIAVGVIDILP [W9R], the protein stability index stood at 3.46.

As to YGSFHQQYWLFGKIIAVGVIDILP [D11F], the protein stability index is 3.33.

Consider YGSFHQQYWLPGKIIAVGVIDILP [D11P], for which the protein stability index was determined as 2.24.

For YGSFHQQYWLIGKIIAVGVIDILP [D11I], the protein stability index amounted to 2.1.

As to YGSFHQQYWLNGKIIAVGVIDILP [D11N], the protein stability index is 3.47.

As to YGSFHQQYWLSGKIIAVGVIDILP [D11S], the protein stability index came out at 2.47.

For the variant YGSFHQQYWLTGKIIAVGVIDILP [D11T], the protein stability index was 3.15.

Regarding YGSFHQQYWLGGKIIAVGVIDILP [D11G], the protein stability index was 1.06.

YGSFHQQYWLAGKIIAVGVIDILP [D11A]: the protein stability index was 4.43.

Take YGSFHQQYWLHGKIIAVGVIDILP [D11H]: the protein stability index was found to be 2.8.

In the case of YGSFHQQYWLWGKIIAVGVIDILP [D11W], the protein stability index was 2.72.

Turning to YGSFHQQYWLVGKIIAVGVIDILP [D11V], the protein stability index stood at 2.38.

For the variant YGSFHQQYWLKGKIIAVGVIDILP [D11K], the protein stability index was determined as 3.39.
